# Measurements from the nanobody polyreactivity screen of Harvey et al. (2022).
# Experiment: yeast display, Sf9 membrane polyspecificity reagent, FACS + sequencing; frameworks hold sequencing errors
# Outline: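 A nanobody's polyreactivity label depends on the gate it was sorted from. Yeast display cells were stained with 10% biotinylated, detergent-solubilized Sf9 membrane reagent for 1 hour at 4 °C, enriched on streptavidin microbeads and sorted by FACS. The low and high (top ~1%) gates were set on anti-HA fluorescence for expression and streptavidin fluorescence for reagent binding.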
row,Sequence,polyreactivity (PSR sort gate)
1,QVQLVESGGGLVQAGGSLRLSCAASGSTFYFNAMGWYRQAPGKEREFVAAITYSGGSTNYADSVKGRFTISRDNAKNTVYLQMNSLKPEDTAVYYCAARRYSYYYWYDYWGQGTQVTVSS,high polyreactivity
2,QVQLVESGGGLVQAGGSLRLSCAASGLTFRSYTMGWYRQAPGKERELVAAISSGGSTYYADSVKGRFTISRDNAKHTVYLKMNSRKPEDTAVYYCAAPRGHGKYYSWGQGTQVNVSS,high polyreactivity
3,QVQLVESGGGLVQAGGSLRLSSAASGFTLYRNAMGWNRQAPGKEREFVASITRSGGSTSYADSVKGRFTISRDNAKNTVYLQMNSLKPEDTAVYYCAAAYEYYRWPSEYNYWGQGTQVTVSS,low polyreactivity
4,QVQLVESGGGLVQAGGSLRLSCAASGRTFWTNAMGWYRQAPGKERELVAAIDRSSTSTYYADSVKGRFTISRDNAKNTVYLQMNSLKPEDTAVYYCAAENPVIVETPYGGFVGKGDSWGQGTQVTVSS,low polyreactivity
5,QVQLVESGGGLVQAGGSLRLSCAASGFIFWGNAMGWYRQAPGKERELVAAISSSSGSTYYADSVKGRFTISRDNAKNTVYLQMNSLKPVDSAVYDCAVDTPRSYRAQGAYNYWGQGTQVTVSS,low polyreactivity
6,QVQLVESGGGLVQAGGSLRLSCAASGSTFGRYAMGWYRQAPGKARELVAAITTSGGRTRYADSVKGRFTISRDNAKNTVYLQMNSLKPEDTAVYYCAASGAQGPDYDYWGQGTQVTVSS,low polyreactivity
7,KVQLVESGGGLVQAGGSLRISCAASGFIFVDYAMGWYRQAPGKERELVAAISSSGSTTYADSVKGRFTISRDNAKNIVYLQMNSLKPEDTAVYYCNADAEVVPGEYDYWGQGTQVTVSS,low polyreactivity
8,QVQLVESGGGLVQAGGSLRLSCAASGFIIDRNAMGWYRQAAGKERELVAAITSRGGSTYYADSVKGRFTISRDNAKNTVYLQMNSLKPEDTAVYYCNAGRRVSTYGYWGPGTQVTVSS,high polyreactivity
9,QVQLVESGGGLVQAGGSLRLSCAASGGIFSRYAIGWYRQAPGKEREFVAAISFSGASTYYADSVKGRFTISRDNAKNTVYLQMNSLKPEDTAVYYCAADRVWPYYQYDYWGQGTQVTVSS,low polyreactivity
10,QVQVVESGGGLVQAGGSLRLSCAASGSIIYYYAMGWYRQAPGKERELVARISWNGGSTYYADSVKGRFTISRDNAKNTVYLQMNSLKPEDNAVYYCAARPWHHYYWGQGTQVTVSS,high polyreactivity
11,QVQQQESGGGLVQAGGSLRLSCAASGSIFDGFNMGWYRQAPGKEREFVAAISYGASTYYADIVKGRFTDSRDNAKYSVYLQMIRLKPEDTAVYYCAVYDELYHVLVYWGRGTQVTVSS,low polyreactivity
12,QVQLVESGGGLVQAGGSLRLSCAASGYIFSYYAMGWYRQAPGKERELVAAINRSGGRTYYADSVKGRFTISRDNAKNTVYLQMNSLKPEDTAVYYCAADQLSDEYDYWGQGTQVTVSS,high polyreactivity
13,QVQLVESGGGLVQAGGSLRLSCPASGFTFRRYAMGWSRQQPGKESELDAAITRNGGSTYYADSVKGRFTISRDNAKNTVYLLINRLKPEDTAVYYCNAVLYTPVYDCFDSWGQGTQVTVSS,high polyreactivity
14,QVQHVESGGGLVQAGGSLRLSCAASAFTFRFYAMGWYRQAPAKEMELVAAISWSGTSTYYADSVKGRFTLSRDNAKNTVYLQMNSLIQDDTAVYYCATQYRRRQRKYDYWGQGTQVTVSS,high polyreactivity
15,QVQLVESGGGLVQAGGSLRLICAASGSIFTPNALGWYRPAPGKERELVAAISSSSDRTYYADSVKGRFTISRDNAKNSVFLLMNSLKPEDTAVYYCAAYAQKRYYWGQGTQVTVSS,high polyreactivity
16,QVQVVESGGGLVQAGGSLRLSCAASGFIFRTYTMGWYRQAPGKERELVAAISYRGSSTYYADSVKGRFTISRDNAKNTVYFLMNSLKPEDTADYYCAAQLYGHRGYYWGQGTQVTVSS,high polyreactivity
17,QVQLVESGGGLVQAGGSLRLSCAASGSTFRYYTMGWYRQAPGKERELVASISRSGSTSYADSVKGRFTISRDNAKNTVYLLMNSLKPEDTAVYYCARESFFGAYAGYDYWGQGTQVTVSS,low polyreactivity
18,QVQLVESVGCLVQAGGSLRLSCAASGRIFTSNAMGWYRQAPGKERELVAAITRRGGTTYYADSVKGRFTISRDNSKNTVYFQMNSLNPEDTAVYYCATIITVASWYDYWGQGTQVTVSS,low polyreactivity
19,QVQLVESGGGLVQAGGSLRLSCAASGRTFRYYDMGRYRQAPGKERELVAAISSSGDRTYYADSVKGRFTISRDNAKNTVYLQMNSLKPEDTAVYYCAADRGARGDYWGQGTQVTVSS,high polyreactivity
20,QVQLVESGGGLVQAGGSLRLSCAASGFTFNYYAMGWYRQAPGKERELVAAITWRSGRTSYADSVKGRFTISRDNAKNTVYLQMNSLKPEDTAVYYCAKYTIYYGLTRYGYWGQGTQVTVSS,high polyreactivity
21,QVQLVESGGGLVQAGGSLRLSCAASGFTIVPYAMGWYRQAPGKERELVAAISRRGSRTYYADSVKGRFTISRDNAKNTVYLQMNSLKPEDTAVYYCAAKLSAVKAAYDYWGQGTQVTVSS,high polyreactivity
22,QVQLVESGGGLVQAGGSLRLSCAASGRIIGYYAKGWYRQAPGKERELVAAISYSGGATYYADSVKGRFTISRDNEMNTVYLQSKSLKPEVTAVYYCAAQGRWPQRYGYWGQGTQVTVSS,high polyreactivity

row,Sequence,polyreactivity (PSR sort gate)
1,QVQLVESGGALVQAGGSLRLSCAASGSTFVYYAMRWYRQTPGKERELVAAIRSDASTNYADSVKGRFTISRDNAKNTVYLQMNILKPEDTAVYYCNTAQLVSDEFDYWGQGTQVTVSS,low polyreactivity
2,QVQLVESGGGLVQAGGSLRLSCAASGRTFDVYAMGWYRQAPGKERELVATISYRSARTYYADSVKGRFTISRDNAKNTVYLQMNSLKPEDTAVYYCAAYFETWHGFGYWGQGTQVTVSS,high polyreactivity
3,QVQLVESGGGLVQAGGSLRLSCAASGLNFYGYFMGWYRQAPGKERELVAAISATGGSTYYADSVKGRFTISRDTAKNTVYLQMNSLKPEETAVYYCAATYYSYTWFSQYYYWGQGTQVTVSS,high polyreactivity
4,QVKLVESGGGLVQAGGSLRLSCAASGGTFGSNAMGWYRQAPGKERHLVAAISTTGGTTYYADSVKGRFTISRDNAKNTVYLQMNSLKPEDTAVYYCAKDGYVYGDWYTYAYDYWGQGTQVTVSS,low polyreactivity
5,QVQLVESGGGLVQAGGSLSLSCAASGRNFLRNAMGWYRKAPGKERELVAAIKSGGNTYYADSVKGRFTISRDNAKITVYLQMNSLKPEYTAVYYCADRQYGFASYRMDYWGHGTQVTVSS,high polyreactivity
6,QVQLVESGGGLVQAGGSLRLSCAASGSTFVFYAMGWYRQAPRKERELVAAITIGGSTYADSVKGRFTISRDNAKNTVYLQMNSLNPEDTAVYYCNADDAPSSFTTLDFTFDYWGQGTQVTVSS,low polyreactivity
7,QVQLVESGGGLVQAGGSLRLSCAASGSTFTPYTMGWYRQAPGKERELVATITGSDGSTYYADSVKGRFTISRDNAKNTVYLQMNSLKPEDTAVYYCYADETRWTWDPFSYICDDYWGQGTQVTVSS,low polyreactivity
8,QVQLVESGGGLVQAGGSLRLSCAASGRTFGWYTMGWYRPAPGKERELVAAISRSGTSTYYADSVKGRFTISRDNAKNTVYLQMNSLKQEDTAVYYCAQYVNPRGGNYWGQGTQVTVSS,high polyreactivity
9,QVQLVESGGGLVQAGGSLRLSCAASGSIFYTYVMGWYRQAPGKERELVAAISGTGGRTYYADSVKGRFTISRDNAKNTVYLQMTSLKPEDTAVYYCATRAYHKGFYRITYYYWGQGTQVTVSS,high polyreactivity
10,QVQLVESGGGLVQAGGSLRLSCAAYGRIFLPNSMGWYIQAPGKERELVAAITWSGGSTYYADSVKGRFTISRDNAKYTVFLQMTSLIPEDTAVYYGAGRGFSYRRRSQQFDYWGLGTQVTVSS,high polyreactivity
11,QVQLVESGGGLVQAGGSLRLTCAAYGRIFRGYAMGWYRQAPGKERDLVAAISGSGGSTYNADSVKGRFTISRDNAKNTVYLQMNSLKPEDTAVYYCNAGWYFYGETTDDYWGQGTQVTVSS,low polyreactivity
12,QVQLVESGGGLVQAGGSLRLSCASSGIIFGGNAMGWYRQAPGKERELVATISNGGSTKYADSVKGRFTISRDNAKNTVYLQMNSLKPEDTAVYYCAAQPRVGSYVRSSRGRYNHWGQGTQVTVSS,high polyreactivity
13,QVQLVESGGGLVQAGGSLRLSCAASGITFDHYAMGWYRQAPGKERELVAAITSGGNTNYADSVKGRFTISRDNAKNTVYLQMNSLKPEDTAVYYCNARYDVWYYYWGQGTQVTVSS,high polyreactivity
14,QVQLVESGGGLVQAGGSLRLSCAASGRIFVRYAMGWYRQAPGKERELVAAISYRGGSTYYADSVKGRFTISRDNAKNTVYLLMNSLKPEDTAVYYCAARNSYGNWSYYYWGQGTQVTLSS,high polyreactivity
15,QVQLVESGGGLVQAGGSLRLSCAASGRTFDSNAMGWYRQAPGKERELVAAISYSGGSTYYADSVKGRFTISRDNAKNTVYLQMNSLKPEDTAVYYCNAGDVHKKPARDYWGQGTQVTVSS,low polyreactivity
16,QVQLVESGGGLVQAGGSLRLSCAASGRTFSYYAMGWYRQAPGKERELVAAITSGGGRTYYADSVKGRFTISRDNAKNTVYLQMNSLKPEDTAVYYCNALSTLYNGYDYWGQGTQVTVSS,high polyreactivity
17,HVQLVESGGGLVQAGGSLRLSCAASGLTYPRYTMGWYRQAPGKESELVAAISSSTGTTNYADSVKGRFTISRDNAKINVYLQMYSLKPEDTAVYYCAAGGSLYAYGYRSRYGYWGQGTQVTVSS,low polyreactivity
18,QVQLVESGGGLVQAGGSLRLSCAASGSTFDDNAMGWYRQAPGKERELVAVISSGGSTNYADSVKGRFTISRDNAKNTVYLQMNSLKPEDTAVYYCAAAKLTRRYRYGYWGQGTQVTVSS,high polyreactivity
19,QVQLVESGGGLVQAGGSLRLSCAASGRIFDHYTLGWYRQAPGKERDFVAAISSSGGSTYYADSVKGRFTSSRDTAKNTVYLQLNSLKPEDTAVYDCAAVYHRLWGYDYWGQGPQVTVSS,high polyreactivity
20,QVQLVESGGGLVQAGGSLRLSCAASGSTFRYNTMGWYRQAPGKEMELVARITSVGSTNYADSVKGRFTISRDNAKNTVYFQMNSLKPEDTAVYYCATTRPIRRTSARYNYWGQGTQVTVSS,low polyreactivity
21,QVQLVESGGGLVQAGGSLRLSCAASGSIFVRNAMGWYRPAPGKERELVADITSRGSSTYYADSVKGRFTISRDNAKNTVYLQMNSLKPEDTAVYYCNAVRYYVRTYIYRHDRGMDYWGQGTQVTVSS,low polyreactivity
